The target in assay [1] is Biotinylated JW8-IgE (human). The assay can be described thus: ELISA; FcεRIα immobilised at 30 nM; biotinylated JW8-IgE titrated (60–0.001 nM) or 0.78 nM pre-incubated 30 min with anti-IgE antibodies (0.0078–600 nM); streptavidin-HRP. Background: An ELISA detects its analyte on a solid surface through an enzyme-linked reagent.
The target in assay [2] is Human monoclonal Sus11-IgE (human). Put plainly: SPR; Biacore X100, CM5 chip, HBS-EP+, 10 μl/min; anti-IgE Le27 immobilised (3000 RU), 30 nM Sus11-IgE captured (~100 RU); 1.56–25 nM antibodies/fragments injected 120 s, dissociation 240 s; 1:1 langmuir fit.

From article PMC6949303 come the findings set out here.

B1: Ligelizumab IgG (antibody, V domains shown)
VH: QVQLVQSGAEVMKPGSSVKVSCKASGYTFSWYWLEWVRQAPGHGLEWMGEIDPGTFTTNYNEKFKARVTFTADTSTSTAYMELSSLRSEDTAVYYCARFSHFSGSNYDYFDYWGQGTLVTVSS
VL: EIVMTQSPATLSVSPGERATLSCRASQSIGTNIHWYQQKPGQAPRLLIYYASESISGIPARFSGSGSGTEFTLTISSLQSEDFAVYYCQQSWSWPTTFGGGTKVEIK
B1 had a fold higher potency than omalizumab in inhibiting IgE binding to FcεRIα in assay [1] of 20 fold. Also, in assay [2], the Kd was 0.0178 nM, the koff worked out at 3.3e-05 s⁻¹ and the kon was found to be 1.8e+06 M⁻¹ s⁻¹.

B2: Ligelizumab F(ab′)2 (protein)
VH: B1 VH
VL: B1 VL
In assay [2], B2 yielded a Kd of 0.0121 nM, an off-rate (koff) of 5.1e-05 s⁻¹ and a kon of 4.2e+06 M⁻¹ s⁻¹.

B3: Ligelizumab Fab (Fab, V domains shown)
VH: B1 VH
VL: B1 VL
In assay [2], B3 registered a dissociation constant (Kd) of 0.035 nM, a koff of 0.00032 s⁻¹ and a kon of 9.2e+06 M⁻¹ s⁻¹.

The Kd is the free concentration of one partner at which half of the binding sites on the other are occupied at equilibrium, for simple one-to-one binding. A low value points to tighter binding. By koff is commonly meant the first-order rate constant of dissociation. A word on the kon: it is a measure of how fast the partners come together. Read a low kon as slower complex formation.
